# Measured values taken from IntAct's records for PubMed 21890701.
# B1: Flagellar motor switch protein FliG (Escherichia coli (strain K12)), P0ABZ1 (parent)
# chain: MSNLTGTDKSVILLMTIGEDRAAEVFKHLSQREVQTLSAAMANVTQISNKQLTDVLAEFEQEAEQFAALNINANDYLRSVLVKALGEERAASLLEDILETRDTASGIETLNFMEPQSAADLIRDEHPQIIATILVHLKRAQAADILALFDERLRHDVMLRIATFGGVQPAALAELTEVLNGLLDGQNLKRSKMGGVRTAAEIINLMKTQQEEAVITAVREFDGELAQKIIDEMFLFENLVDVDDRSIQRLLQEVDSESLLIALKGAEQPLREKFLRNMSQRAADILRDDLANRGPVRLSQVENEQKAILLIVRRLAETGEMVIGSGEDTYV
# partner: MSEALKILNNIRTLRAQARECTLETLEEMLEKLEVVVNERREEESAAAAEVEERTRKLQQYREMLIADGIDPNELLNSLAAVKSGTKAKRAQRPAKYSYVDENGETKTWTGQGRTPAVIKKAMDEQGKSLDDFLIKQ
# B2: DNA-binding protein H-NS (Escherichia coli (strain K12)), P0ACF8 (parent)
# chain: B1 partner
# partner: B1 chain
# B3: Flagellar motor switch protein FliG (Escherichia coli (strain K12)), P0ABZ1 (parent)
# chain: B1 chain
# partner: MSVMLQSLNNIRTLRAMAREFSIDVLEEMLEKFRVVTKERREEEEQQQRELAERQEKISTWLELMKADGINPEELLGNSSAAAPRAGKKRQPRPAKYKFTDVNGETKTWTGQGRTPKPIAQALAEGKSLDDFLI
# Variants of: B1
# Conditions: with hns_ecoli hns, P0ACF8
row,Variant,effect of a mutation on the interaction
1,MSNLTGTDKSVILLMTIGEDRAAEVFKHLSQREVQTLSAAMANVTQISNKQLTDVLAEFEQEAEQFAALNINANDYLRSVLVKALGEERAASLLEDILETRDTASGIETLNFMEPQSAADLIRDEHPQIIATILVHLKRAQAADILALFDERLRHDVMLWIATFGGVQPAALAELTEVLNGLLDGQNLKRSKMGGVRTAAEIINLMKTQQEEAVITAVREFDGELAQKIIDEMFLFENLVDVDDRSIQRLLQEVDSESLLIALKGAEQPLREKFLRNMSQRAADILRDDLANRGPVRLSQVENEQKAILLIVRRLAETGEMVIGSGEDTYV [R160W],disrupting interaction strength
2,MSNLTGTDKSVILLMTIGEDRAAEVFKHLSQREVQTLSAAMANVTQISNKQLTDVLAEFEQEAEQFAALNINANDYLRSVLVKALGEERAASLLEDILETRDTASGIETLNFMEPQSAADLIRDWHPQIIATILVHLKRAQAADILALFDERLRHDVMLRIATFGGVQPAALAELTEVLNGLLDGQNLKRSKMGGVRTAAEIINLMKTQQEEAVITAVREFDGELAQKIIDEMFLFENLVDVDDRSIQRLLQEVDSESLLIALKGAEQPLREKFLRNMSQRAADILRDDLANRGPVRLSQVENEQKAILLIVRRLAETGEMVIGSGEDTYV [E125W],decreasing interaction strength
3,MSNLTGTDKSVILLMTIGEDRAAEVFKHLSQREVQTLSAAMANVTQISNKQLTDVLAEFEQEAEQFAALNINANDYLRSVLVKALGEERAASLLEDILETRDTASGIETLNFMEPQSAADLIRDEWPQIIATILVHLKRAQAADILALFDERLRHDVMLRIATFGGVQPAALAELTEVLNGLLDGQNLKRSKMGGVRTAAEIINLMKTQQEEAVITAVREFDGELAQKIIDEMFLFENLVDVDDRSIQRLLQEVDSESLLIALKGAEQPLREKFLRNMSQRAADILRDDLANRGPVRLSQVENEQKAILLIVRRLAETGEMVIGSGEDTYV [H126W],disrupting interaction strength
4,MSNLTGTDKSVILLMTIGEDRAAEVFKHLSQREVQTLSAAMANVTQISNKQLTDVLAEFEQEAEQFAALNINANDYLRSVLVKALGEERAASLLEDILETRDTASGIETLNFMEPQSAADLIRDEHPWIIATILVHLKRAQAADILALFDERLRHDVMLRIATFGGVQPAALAELTEVLNGLLDGQNLKRSKMGGVRTAAEIINLMKTQQEEAVITAVREFDGELAQKIIDEMFLFENLVDVDDRSIQRLLQEVDSESLLIALKGAEQPLREKFLRNMSQRAADILRDDLANRGPVRLSQVENEQKAILLIVRRLAETGEMVIGSGEDTYV [Q128W],decreasing interaction strength

# Variants of: B2
# Conditions: with flig_ecoli fliG, P0ABZ1
row,Variant,effect of a mutation on the interaction
1,MSEALKILNNIRTLRAQARECTLETLEEMLEKLEVVVNERREEESAAAAEVEERTRKLQQYREMLIADGIDPNELLNSLAAVKSGTKAKRAQRPAKYSYVDENGETKTWTGQGWTPAVIKKAMDEQGKSLDDFLIKQ [R114W],decreasing interaction strength
2,MSEALKILNNIRTLRAQARECTLETLEEMLEKLEVVVNERREEESAAAAEVEERTRKLQQYREMLIADGIDPNELLNSLAAVKSGTKAKRAQRPAKYSYVDENGETKTWTGDGRTPAVIKKAMDEQGKSLDDFLIKQ [Q112D],decreasing interaction
3,MSEALKILNNIRTLRAQARECTLETLEEMLEKLEVVVNERREEESAAAAEVEERTRKLQQYREMLIADGIDPNELLNSLAAVKSGTKAKRAQRPAKYSYVDENGETKTWTGQDRTPAVIKKAMDEQGKSLDDFLIKQ [G113D],decreasing interaction strength

# Variants of: B3
# Conditions: with stpa_ecoli stpA
row,Variant,effect of a mutation on the interaction
1,MSNLTGTDKSVILLMTIGEDRAAEVFKHLSQREVQTLSAAMANVTQISNKQLTDVLAEFEQEAEQFAALNINANDYLRSVLVKALGEERAASLLEDILETRDTASGIETLNFMEPQSAADLIRDEHPQIIATILVHLKRAQAADILALFDERLRHDVMLWIATFGGVQPAALAELTEVLNGLLDGQNLKRSKMGGVRTAAEIINLMKTQQEEAVITAVREFDGELAQKIIDEMFLFENLVDVDDRSIQRLLQEVDSESLLIALKGAEQPLREKFLRNMSQRAADILRDDLANRGPVRLSQVENEQKAILLIVRRLAETGEMVIGSGEDTYV [R160W],disrupting interaction strength
2,MSNLTGTDKSVILLMTIGEDRAAEVFKHLSQREVQTLSAAMANVTQISNKQLTDVLAEFEQEAEQFAALNINANDYLRSVLVKALGEERAASLLEDILETRDTASGIETLNFMEPQSAADLIRDEWPQIIATILVHLKRAQAADILALFDERLRHDVMLRIATFGGVQPAALAELTEVLNGLLDGQNLKRSKMGGVRTAAEIINLMKTQQEEAVITAVREFDGELAQKIIDEMFLFENLVDVDDRSIQRLLQEVDSESLLIALKGAEQPLREKFLRNMSQRAADILRDDLANRGPVRLSQVENEQKAILLIVRRLAETGEMVIGSGEDTYV [H126W],disrupting interaction strength
3,MSNLTGTDKSVILLMTIGEDRAAEVFKHLSQREVQTLSAAMANVTQISNKQLTDVLAEFEQEAEQFAALNINANDYLRSVLVKALGEERAASLLEDILETRDTASGIETLNFMEPQSAADLIRDWHPQIIATILVHLKRAQAADILALFDERLRHDVMLRIATFGGVQPAALAELTEVLNGLLDGQNLKRSKMGGVRTAAEIINLMKTQQEEAVITAVREFDGELAQKIIDEMFLFENLVDVDDRSIQRLLQEVDSESLLIALKGAEQPLREKFLRNMSQRAADILRDDLANRGPVRLSQVENEQKAILLIVRRLAETGEMVIGSGEDTYV [E125W],disrupting interaction strength
